B1: Friend leukemia integration 1 transcription factor, residues 116 to 197; numbered along this chain, Q01543 (parent)
chain: NMTTNERRVIVPADPTLWTQEHVRQWLEWAIKEYSLMEIDTSFFQNMDGKELCKMNKEDFLRATTLYNTEVLLSHLSYLRES
B2: Transcription factor SOX-4, residues 60 to 127; numbered along this chain, Q06945 (parent)
chain: KRPMNAFMVWSQIERRKIMEQSPDMHNAEISKRLGKRWKLLKDSDKIPFIREAERLRLKHMADYPDYK

± gives the uncertainty stated by the source.

The first series covers variants of B1. In words: abundance fitness (aPCA) (normalised: wild type 0, dead -1); higher = more abundant; growth selection in yeast, the domain comes from the species named. The note with it: Homo sapiens.
With E33Y, the abundance fitness was -0.278 ± 0.31. Same read-out and setting: the value for E33F was -0.803 ± 0.37.

Turning to L79F, the abundance fitness is -0.657 ± 0.47. With D59R, the abundance fitness was -0.327 ± 0.066. On to Q25M, for which the abundance fitness is -0.187 ± 0.12.

As to Q25N, the abundance fitness was 0.092 ± 0.14. Same read-out and setting: the value for M37V was 0.066 ± 0.076; that for N56E was 0.178 ± 0.1; that for N56A was -0.091 ± 0.088. The same measure, in the same setting: the value for Y67R was 0.079 ± 0.061; that for E51I was -0.259 ± 0.23. As to W18L, the abundance fitness was -0.868 ± 0.2. Turning to W18A, the abundance fitness was -0.879 ± 0.14.

Turning to V9L, the abundance fitness is -0.045 ± 0.068. Consider V9D, for which the abundance fitness was -0.055 ± 0.3. For T19A, the abundance fitness is -0.309 ± 0.14. With T19E, the abundance fitness was -0.597 ± 0.38.

On to V11P, for which the abundance fitness is 0.245 ± 0.11.

Turning to S42W, the abundance fitness was -0.294 ± 0.059. For K57T, the abundance fitness was -0.086 ± 0.096.

T65A: the abundance fitness was -0.424 ± 0.11. In the case of P12S, the abundance fitness is 0.079 ± 0.087. On to M55S, for which the abundance fitness was -0.424 ± 0.082. In the case of M55A, the abundance fitness was -0.119 ± 0.066. With M55R, the abundance fitness is -0.444 ± 0.067. Y34N: the abundance fitness came out at 0.245 ± 0.24. For Y34G, the abundance fitness is -0.215 ± 0.066. On to T3S, for which the abundance fitness amounted to 0.06 ± 0.14.

With T3F, the abundance fitness amounted to 0.111 ± 0.41. Consider G49A, for which the abundance fitness was -1.01 ± 0.15. As to I31T, the abundance fitness is -0.023 ± 0.11.

P15D: the abundance fitness was -0.489 ± 0.18. Turning to K54Q, the abundance fitness was -0.057 ± 0.095.

For K54R, the abundance fitness is -0.063 ± 0.078.

For K32G, the abundance fitness was -0.2 ± 0.059. Same read-out and setting: the value for C53V was -0.017 ± 0.07; that for M2L was -0.005 ± 0.07.

Regarding E28M, the abundance fitness was -0.187 ± 0.15.

Turning to E28I, the abundance fitness stood at 0.141 ± 0.23. With A13L, the abundance fitness was -0.003 ± 0.04. Consider A13H, for which the abundance fitness was -0.179 ± 0.14. As to A13Q, the abundance fitness was found to be 0.106 ± 0.07.

Consider K50S, for which the abundance fitness is -0.032 ± 0.077. Take T16V: the abundance fitness is -0.052 ± 0.15. The same measure, in the same setting: the value for D48M was -0.464 ± 0.12; that for D48I was -0.391 ± 0.27.

Consider D48R, for which the abundance fitness is -0.305 ± 0.082. As for I39T, the abundance fitness was -0.159 ± 0.092. On to I39W, for which the abundance fitness was -0.57 ± 0.091. Take I39E: the abundance fitness is -0.261 ± 0.13. Consider V23C, for which the abundance fitness is -0.752 ± 0.22. For V23L, the abundance fitness is -0.175 ± 0.068. On the same count and under the same terms, the value for F44E was -0.991 ± 0.14; that for F44Q was -0.96 ± 0.18; that for H22C was -0.529 ± 0.33. Turning to R7E, the abundance fitness was -0.044 ± 0.096. On to R7S, for which the abundance fitness is -0.156 ± 0.097.

Turning to R7V, the abundance fitness was -0.05 ± 0.11.

As for S35Q, the abundance fitness was -0.105 ± 0.12. In the case of L17R, the abundance fitness was -0.042 ± 0.064. Turning to T41F, the abundance fitness is 0.302 ± 0.19.

Regarding T41N, the abundance fitness was -0.103 ± 0.17. Same read-out and setting: the value for T41E was -0.08 ± 0.11; that for T41P was 0.003 ± 0.1; that for L36G was -0.467 ± 0.086. With L36R, the abundance fitness is -1.04 ± 0.23. D40M: the abundance fitness is -0.67 ± 0.2. Turning to Q20T, the abundance fitness is -0.029 ± 0.06.

With Q20S, the abundance fitness amounted to 0.047 ± 0.052.

For the variant L27Y, the abundance fitness is -0.834 ± 0.25. Regarding L27S, the abundance fitness is -0.438 ± 0.093. In the case of A30R, the abundance fitness is -0.21 ± 0.053. In the case of A30S, the abundance fitness is 0.031 ± 0.065. Take A30T: the abundance fitness was -0.058 ± 0.063. Take L61A: the abundance fitness is -0.13 ± 0.071. For the variant L61Q, the abundance fitness turned out to be 0.009 ± 0.1.

Turning to L61C, the abundance fitness is -0.396 ± 0.15. Turning to A63Y, the abundance fitness came to 0.085 ± 0.19. Turning to A63T, the abundance fitness was -0.106 ± 0.083. Still for that read-out and setting: the value for I10P was 0.26 ± 0.088. For L66S, the abundance fitness came out at 0.013 ± 0.074. Regarding T64A, the abundance fitness is -0.404 ± 0.12.

Consider T64E, for which the abundance fitness was -0.792 ± 0.34. For the variant T64L, the abundance fitness is -0.262 ± 0.11. L76G: the abundance fitness was -0.28 ± 0.25. Take R24M: the abundance fitness was -0.131 ± 0.1.

A further series covers variants of B2. Described as above. The note with it: Homo sapiens.
For the variant D43G, the abundance fitness was -0.27 ± 0.046. D43N: the abundance fitness was -0.294 ± 0.053. Take D43I: the abundance fitness is -0.226 ± 0.058. With V9H, the abundance fitness is -0.733 ± 0.18. Same read-out and setting: the value for V9N was -0.609 ± 0.21; that for M19I was 0.014 ± 0.045; that for M19H was -0.368 ± 0.072. With M19N, the abundance fitness was -0.396 ± 0.057. For the variant M19Y, the abundance fitness is -0.459 ± 0.064. The same measure, in the same setting: the value for M19G was -0.452 ± 0.053; that for M19P was -0.785 ± 0.26; that for N5W was -0.439 ± 0.16. Same read-out and setting: the value for N5I was -0.665 ± 0.23; that for N5H was -0.632 ± 0.18. Turning to I18C, the abundance fitness is -0.278 ± 0.45. Turning to I18Q, the abundance fitness was -0.948 ± 0.3. As to I18T, the abundance fitness was -0.701 ± 0.22. On to G35D, for which the abundance fitness came out at 0.116 ± 0.05.

For the variant G35W, the abundance fitness was determined as 0.142 ± 0.058.

Take G35T: the abundance fitness came to 0.15 ± 0.049. Consider G35Y, for which the abundance fitness was 0.119 ± 0.05. In the case of A62E, the abundance fitness is -0.078 ± 0.068. Regarding A62M, the abundance fitness is -0.304 ± 0.075. Same read-out and setting: the value for A62R was -0.033 ± 0.041; that for S31T was 0.047 ± 0.052; that for S31K was -0.039 ± 0.06.

Regarding S31L, the abundance fitness was -0.045 ± 0.041.

For L58F, the abundance fitness was -0.084 ± 0.039.

For L58E, the abundance fitness was 0.091 ± 0.058.

As to L58T, the abundance fitness is -0.087 ± 0.058. As for L58R, the abundance fitness is 0.007 ± 0.04. For L58C, the abundance fitness is -0.247 ± 0.058. Consider S44P, for which the abundance fitness is -0.465 ± 0.13. As to S44H, the abundance fitness is -0.205 ± 0.1.

Regarding L34G, the abundance fitness was -0.973 ± 0.14. Regarding L34I, the abundance fitness is -0.083 ± 0.17. Take L34S: the abundance fitness was -0.621 ± 0.15. As for L34Q, the abundance fitness was -0.577 ± 0.22. For P3W, the abundance fitness is -0.561 ± 0.077. On the same count and under the same terms, the value for P3Q was -0.048 ± 0.065.

Regarding P3A, the abundance fitness was -0.114 ± 0.053. As for P3N, the abundance fitness was -0.108 ± 0.049. On the same count and under the same terms, the value for P3Y was -0.182 ± 0.042. For the variant R15Y, the abundance fitness was -0.375 ± 0.066.

Turning to R15M, the abundance fitness was -0.177 ± 0.053. R15Q: the abundance fitness is -0.3 ± 0.069. Take R15N: the abundance fitness is -0.738 ± 0.096.

On to R15A, for which the abundance fitness is -0.38 ± 0.061. On to R15S, for which the abundance fitness was -0.335 ± 0.039. Take E29Q: the abundance fitness is -0.367 ± 0.068. With E29K, the abundance fitness is -0.691 ± 0.24. For the variant E29P, the abundance fitness is -0.162 ± 0.15. Regarding E29A, the abundance fitness is -0.199 ± 0.071. For E29D, the abundance fitness was -0.074 ± 0.062. Same read-out and setting: the value for R57A was 0.06 ± 0.062; that for R57K was -0.375 ± 0.16. Take R57D: the abundance fitness is -0.372 ± 0.11. On the same count and under the same terms, the value for R57T was -0.19 ± 0.17; that for R57L was -0.328 ± 0.063. As for L40R, the abundance fitness was -0.08 ± 0.041.

Turning to R37E, the abundance fitness came to 0.043 ± 0.07. Same read-out and setting: the value for W38D was -0.67 ± 0.091; that for W38L was -0.989 ± 0.096; that for W38T was -0.632 ± 0.11. Take W38Y: the abundance fitness was -0.548 ± 0.089. As to W38K, the abundance fitness was -0.708 ± 0.09. For W38A, the abundance fitness is -1.01 ± 0.1. Regarding F49K, the abundance fitness was -0.879 ± 0.17. On the same count and under the same terms, the value for F49L was -0.598 ± 0.065; that for F49G was -0.702 ± 0.092. As to F49Y, the abundance fitness is -0.044 ± 0.11. For the variant K42A, the abundance fitness is -0.066 ± 0.079. The same measure, in the same setting: the value for K42C was -0.28 ± 0.2. For K42D, the abundance fitness was -0.274 ± 0.16.

Turning to K42L, the abundance fitness is -0.368 ± 0.055. Consider K36V, for which the abundance fitness was found to be 0.057 ± 0.063.

As to K36D, the abundance fitness was -0.362 ± 0.25. Still for that read-out and setting: the value for K36L was -0.105 ± 0.057; that for K36P was -0.722 ± 0.18; that for K36C was -0.482 ± 0.28. Consider E54Y, for which the abundance fitness is -0.652 ± 0.058.
